Data on two molecules can be found in article PMC7821112 (The New Phytologist, 2020).

Test [1] concerns the target GST‐tagged Ghd7 (Grain number, plant height and heading‐date7) (rice (Oryza sativa)) (UniProt E5RQA1). Kind of test: pull-down.
Test [2] deals with T1, GST‐tagged Ghd7 (Grain number, plant height and heading‐date7) (rice (Oryza sativa), UniProt E5RQA1 1-257).
T1 sequence (looked up): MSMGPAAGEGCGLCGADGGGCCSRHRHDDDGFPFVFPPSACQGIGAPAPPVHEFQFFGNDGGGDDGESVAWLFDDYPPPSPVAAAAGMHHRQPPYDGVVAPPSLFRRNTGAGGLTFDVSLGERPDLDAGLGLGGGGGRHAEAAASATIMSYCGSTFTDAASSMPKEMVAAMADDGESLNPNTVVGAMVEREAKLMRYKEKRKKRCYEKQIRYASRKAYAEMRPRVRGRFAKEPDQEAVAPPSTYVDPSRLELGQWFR
The experiment in a line: pull-down.

In turn, “MBP‐tagged Hd1 (Heading date 1) (from UniProt Q9FDX8 1-395) (natural protein)” displayed a stoichiometry N in test [1] of 1.

B1: MBP‐tagged DTH8 (Days‐to‐heading on chromosome 8) (natural protein, rice (Oryza sativa), UniProt Q0J7P4 1-297, looked up)
chain: MKSRKSYGHLLSPVGSPPLDNESGEAAAAAAAGGGGCGSSAGYVVYGGGGGGDSPAKEQDRFLPIANVSRIMKRSLPANAKISKESKETVQECVSEFISFVTGEASDKCQREKRKTINGDDLLWAMTTLGFEAYVGPLKSYLNRYREAEGEKADVLGGAGGAAAARHGEGGCCGGGGGGADGVVIDGHYPLAGGLSHSHHGHQQQDGGGDVGLMMGGGDAGVGYNAGAGSTTTAFYAPAATAASGNKAYCGGDGSRVMEFEGIGGEEESGGGGGGGERGFAGHLHGVQWFRLKRNTN
On to B1, for which, in test [2], the “stoichiometry N” value is 1.
